Here are results for one molecule from article PMC8932414, “Latent TGFβ complexes are transglutaminase cross-linked to fibrillin to facilitate TGFβ activation” (Matrix Biology, 2022).

The target of the test is T1, CT1-SLC (LTBP1-CT region disulphide bonded to the TGFβ1 small latent complex) (UniProt Q14766 1347-1721; P01137 30-390, disulphide bonded to the SLC).
T1 construct: TGFβ1 small latent complex (proTGFβ1: prodomain LAP and growth factor); also called LTBP1-SLC; truncated version of the LLC; source: HEK293T, co-expressed from pBUD4.1, purified from serum free media (Anti-Flag M2 resin, SEC); not shown: Twin-Strep (chain inferred)
The experiment in a line: BLI; OctetRED96; biotinylated CT1-SLC on streptavidin biosensors, PF3 100-6.25 nM; 10 mM HEPES, 150 NaCl, pH 7.4, 0.005% Tween-20, 25 °C; 1:1 Langmuir fit. Conditions: both partners purified. Background: BLI is a label-free optical method that tracks binding on a fibre tip over time.

T1 sequence (Q14766 1347-1721, chain 1 of 2): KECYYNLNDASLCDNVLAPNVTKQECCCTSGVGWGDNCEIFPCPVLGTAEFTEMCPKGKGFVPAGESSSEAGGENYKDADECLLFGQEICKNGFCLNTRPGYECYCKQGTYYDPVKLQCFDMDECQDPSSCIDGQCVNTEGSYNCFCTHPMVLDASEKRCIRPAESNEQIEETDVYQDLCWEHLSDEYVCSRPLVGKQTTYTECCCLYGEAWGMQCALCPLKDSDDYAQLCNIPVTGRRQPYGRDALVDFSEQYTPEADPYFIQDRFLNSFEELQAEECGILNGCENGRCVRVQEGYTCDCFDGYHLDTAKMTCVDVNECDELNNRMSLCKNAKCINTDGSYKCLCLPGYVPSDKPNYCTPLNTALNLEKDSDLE
T1 sequence (P01137 30-390, chain 2 of 2): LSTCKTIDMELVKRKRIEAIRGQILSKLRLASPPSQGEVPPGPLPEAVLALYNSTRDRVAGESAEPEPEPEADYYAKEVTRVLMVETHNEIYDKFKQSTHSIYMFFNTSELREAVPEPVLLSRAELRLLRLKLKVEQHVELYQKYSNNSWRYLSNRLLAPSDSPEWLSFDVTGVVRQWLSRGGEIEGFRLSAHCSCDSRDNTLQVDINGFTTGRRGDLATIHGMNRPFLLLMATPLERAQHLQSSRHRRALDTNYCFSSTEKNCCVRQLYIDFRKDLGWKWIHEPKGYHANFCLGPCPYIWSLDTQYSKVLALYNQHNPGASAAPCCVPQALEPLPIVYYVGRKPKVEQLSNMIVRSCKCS

B1: fibrillin-1 N-terminal region PF3 (domain or fragment)
chain: not shown
notes: fibrillin-1, N-terminal region called PF3; P35555-1 is printed for the AlphaFold input (115-287); PF1 and PF2 are two over-lapping constructs within this region; not verified; also called fibrillin1-PF3; fibrillin PF3 fragment
What is called Kd is the free concentration of one partner at which half of the binding sites on the other are occupied at equilibrium, for simple one-to-one binding. High values mean weaker binding, low ones tighter binding. In turn, B1 displayed a Kd of roughly 6 nM.
